{
  "source": "the DeepSol protein solubility set",
  "data": [
    {"assay": "soluble on expression in E. coli; label from the status in PepcDB or PDB records", "values": [
      {"sequence": "MGSDKIHHHHHHMSHLQTSNLPFKQRVDQQVHNEIMRKAVVNAQETIGQNRQKMVDELGHWEEWRDLSKQFRNHVLANLDAYLYQLSEKVKQNGGHVFFAETAEEATAYIRKVALAQKAKTIVKSKSMVTEEIGMNHVLEAEGINVVETDLGEYLLQIVGDKPSHIVVPAIHKDRHRIRKELHEKLGYTGSEQPEEMNAFVRKTLRKDFLNADIGISGCNFAVAETGSVCLVTNEGNLRLATTLPKTHIAVMGMERLAPTFKEVDALITMLCRSAVGAKLTAYNTWLTGPRLEGETDGPEDFHLVIVDNGRSKILASEFAEVLRCIRCGACLNTCPAYRQIGGHGYGSIYPGPIGAVISPLLGGYDEFKDLPYACSLCTACNSVCPVKIPLAQLILKHREKLVEEGRTPKGEQLAIKGFSFANSHPSLWGAGVKIGAKIAAKFIKNGKAPLQPGALGEWTKARDLPNPEGQSFREWFANRK", "soluble on expression in E. coli": "not soluble"},
      {"sequence": "MLIINKLNHAQKQLEKLNFIPQQADKVDFLASSSEFKARILQLINTAKSRIYLTALYFEQDEAGQQILAALYQAKLANPALDIQILVDWHRAQRGRIGEKTTSSNADWYANMKQQYNLPPEQEIAVWGVPINGREIFGVLHLKGFIFDDTILYSGASINNVYLQQFDRYRYDRYHTLENKVLADSLVTFLQQHILTDHAVNRLDNMQRPVTANIRPAIKAFRKQLTKQQYQFAEQPESNGLMLSPIAGLGRKNQLNKTIEALFYKTQNKLTICTPYFNFPRSLITRIKWLLENGKQVEIIAGDKKANDFYTPPDKKFTMAAALPYLYEKNLRAFAKRFDSYIQNKLLTIRLWKDGENTYHLKGLWVDNRYILLTGNNLNPRAWGLDAENGILLDDPKAELAEKAALELTQIRTFTQELSHYSDLETIKDYPLEVQKLLKKFGRVKLDKIIKMLLLEHHHHHH", "soluble on expression in E. coli": "not soluble"},
      {"sequence": "MAHHHHHHMSGEKKEALKNDLPPIPGCDTDGQTYKSAEEMWAAELRGNLYDAETGWYGRSLQYWSKVPATVSGVLGGMEHIHDVDLKESRAFITSIPDRGTSRALDCGAGIGRVTKYLLSTLYTVTDLLEPVANMLEKAKEELKGYPVGEFFLSSMETVNLKPNTYDLIVIQWTAIYLTDDDFVKFLAHCKTALTLRGYIFFKENCSCDERFVVDKEDSSLTRSDAHYKRIFAAAGVEVVKETMQKEWPDDLFKVKMYALR", "soluble on expression in E. coli": "soluble"},
      {"sequence": "MAYDLAVPGPIMQEVAQYLASLSGKAVVINIFAGHADRSLSQTQLAELLDKLLARHPGSAVILLDHRREIRIPLPPEVVINPFNTLHHAMALIAQAELIISPDTSVVHMAAAWNKPLIAVYKDVLLNNRLWAPGYDNARQIIVKCGKVHQHRGLVDRIIAALPETLLEHHHHHH", "soluble on expression in E. coli": "not soluble"},
      {"sequence": "MSDPRYQIDVSVVTRYLKEQSDPENSRFAFAYTITVQNNGSLSAKLLSRHWLITNGDGEVEEVRGAGVVGQQPNIDPGQSHTYSSGAVISTRVGTMQGSYQMFAEDGKRFDAEIAPFRLAVPGALHLEHHHHHH", "soluble on expression in E. coli": "soluble"},
      {"sequence": "MSDSRYKVDVSVVTRFLAEQSQPEQNRFAFAYTITVHNNGELPAKLLSRHWIITDGDGHVEEVRGEGVVGQQPLIKVGQSHTYSSGTVMTTQVGNMQGSYQMLAEDGKRFDAVIEPFRLAVPGSLHLEHHHHHH", "soluble on expression in E. coli": "soluble"},
      {"sequence": "MGSDKIHHHHHHMILDTAPHISSVGQVKEFFLARQPILDQNQNLIAYELLFRRAGVRAPVSAEDTRGAASIIAHTSELGIENVTGSALGFFNVNSTLLMGDLVNFLPAEKVVFEFPQTDKITPELVRRVAELAKAGYRFALDDVITLSEYIKPLLPFVEIIKIDTSVMTYADLAMLVRQFKQARKVLLADKVETLEQFQNCHELGFDYYQGYYFAKPALLSGKKLATSQLAIMELMTLVARDADTIEIEQRIKKEVSLCLSLLRLVNTPAMGVTKSIHSLSEALMVLGRRQLQRWLQIQIYVGPDPQIQFGSPLLLLAATRGKLLELVAQKLQPANRSMADIAFTVGILSLLDALFGQHMERILRQIVLSEEITEALLYRTGFYGDLLKLAEYLEKPGEAGRLLVPLLARLGLPIEELYPFQLEAFEWSNSLLPTL", "soluble on expression in E. coli": "not soluble"},
      {"sequence": "GHMYEVDHADVYDLFYLGRGKDYAAEASDIADLVRSRTPEASSLLDVACGTGTHLEHFTKEFGDTAGLELSEDMLTHARKRLPDATLHQGDMRDFRLGRKFSAVVSMFSSVGYLKTTEELGAAVASFAEHLEPGGVVVVEPWWFPETFADGWVSADVVRRDGRTVARVSHSVREGNATRMEVHFTVADPGKGVRHFSDVHLITLFHQAEYEAAFTAAGLRVEYLEGGPSGRGLFVGVPA", "soluble on expression in E. coli": "soluble"},
      {"sequence": "MSKEIAKKRIEELRDLLNTFNYQYHVLDNPSVSDAEYDRNMQELIKLEAENPEFMSEDSPSIRVGGTVLDIFEKVTHKSPMLSLGNAFNEGDLRDFDRRVRQGIDDANVRYICELKIDGLAVSLHYEKGRFIQGATRGDGVTGEDITQNLKTIKAIPLRLNEEVTLEARGEAYMPKRSFVKLNEEKEQNGEDVFANPRNAAAGSIRQLDPKIAAKRNLSMFVYGLANVEEKTIPSHSESLDYLGELGFKTNPNRRTCETIEEVIAYVEEWQEKRPHLDYEIDGIVIKVDDVALQESLGTTAKSPRWAIAYKFPAEEVVTRLTGIELSVGRTGVVTPTAELEPVRVAGTIVRRASLHNEDLIREKDIRIGDYVVVKKAGDIIPEVVNVIFDKRTGGEEEYHMPTHCPACESELVRLEEEVALRCINPTCPAQIREGLIHFVSRNAMNIDGLGERVITQLFDADYIRTFADLYSLTKEQLLQLERFGEKSATNLVQAIENSKENSLERLLFGLGIRHVGAKAARTFAEHFETMDALVKATEEELKAINEIGEKMAQSVVAYFDNEDVLELLQQFKEYGVNMTYKGIKIADLQNVESYFAGKTVVLTGKLEVMGRSEAKKKIEALGGKVTGSVSKSTDLVVAGEAAGSKLAQAEKHNVEVWNEERFLQELNK", "soluble on expression in E. coli": "soluble"},
      {"sequence": "MGSDKIHHHHHHMSDNLPKKQPRTAPPEARREQLIDATITAISTYGLSGTTLAKVTAEAGLSLGLVNFHFKSKEALLTATLTHLADEHRALWFTRSSQPDVSAADKLKLIVDAQFHAKICNRRKLSVWFAFFGESRPRKAYRELTGPLDEERQIATSRLCADIIAEGGYSGIDSDTVSAMLESLFDGFWLNILMYPDRFTRQSAKAQVLSYLRLCFPQHFTCLDAETFA", "soluble on expression in E. coli": "not soluble"},
      {"sequence": "MGSDKIHHHHHHMRRIRTLLSKKPSKLVFNLRKYAAFRQAWKSINVNRTSYSKTRRHYDAVVIGSDEVWNIQNPTFAMMPEYFGRGLNAKNIITYAPSSSKTTYADVAQNPLLAEGMRNIHHFSARDRNTFEIVEKIVNKPVTMVLDPTFLVEYDEEVEEAGVNSHGYVLVYTYQFDRLKIEKTRRFARSRGLRLISPCFYNDWCDEVVPCTPFGFLGLIRDAEYVVTDTFHGSIFSILYGKHFGSYASEKIKVAALLSALGLADRELGGVDDIGSVLDARIDYGRVRTCIEQERDVSLNYLRQALAPAG", "soluble on expression in E. coli": "not soluble"},
      {"sequence": "MKPSTSKTTHSPPPEEPTAPFVNDNLPNPEDEPTIGDLNAFHSGEELHRQRSELARANYEKARPEMIANQRAVTAHLFNRYTEDEERKRVEQQKNKEAMNASTSAPTSSRNGGQSVENRKRRNDVVVAPPTSEEEWKRAQQQHWMGQQQPQMQFQMQQQYHSQQQQYIMMQQQHHHMTGMQQIHHQMPSTSSADSIRSVPTPASSMHQPSPAEMRNGCGMSRNATMDMTCSPMSGGQPIVDENNLAVPEGEWFDKLALAVAEQYNVDTILGPDTYDTFLAELDFSSSESPTKQSPMEMNGDRMPSTAPPPAQNPQHIAQLQQQQNKMRLMQQQQQEMQRIEQQRRQQIMQQQQQQQQQEHQRQQMLLQQQQQQQQMQQHHQMNGGGQFATQAHQQAAYMQQMQRMEQIRHQQQQAQQHQQAQQQHQQQAQHHQMGYGIPNGYPQQMHMHPPAYGAHHMPQPTAFANIN", "soluble on expression in E. coli": "not soluble"},
      {"sequence": "VKRFWENVGKPNDTTDGRGTTSLAMTPISQTPGLLAEAMVDLGAIEHNVRVLREHAGHAQLMAVVKADGYGHGATRVAQTALGAGAAELGVATVDEALALRADGITAPVLAWLHPPGIDFGPALLADVQVAVSSLRQLDELLHAVRRTGRTATVTVKVDTGLNRNGVGPAQFPAMLTALRQAMAEDAVRLRGLMSHMVYADKPDDSINDVQAQRFTAFLAQAREQGVRFEVAHLSNSSATMARPDLTFDLVRPGIAVYGLSPVPALGDMGLVPAMTVKCAVALVKSIRAGEGVSYGHTWIAPRDTNLALLPIGYADGVFRSLGGRLEVLINGRRCPGVGRICMDQFMVDLGPGPLDVAEGDEAILFGPGIRGEPTAQDWADLVGTIHYEVVTSPRGRITRTYREAENR", "soluble on expression in E. coli": "soluble"},
      {"sequence": "MAELVPFAVPIESDKTLLVWELSSGPTAEALHHSLFTAFSQFGLLYSVRVFPNAAVAHPGFYAVIKFYSARAAHRAQKACDRKQLFQKSPVKVRLGTRHKAVQHQALALNSSKCQELANYYFGFNGCSKRIIKLQELSDLEERENEDSMVPLPKQSLKFFCALEVVLPSCDCRSPGIGLVEEPMDKVEEGPLSFLMKRKTAQKLAIQKALSDAFQKLLIVVLESGKIAVEYRPSEDIVGVRCEEELHGLIQVPCSPWKQYGQEEEGYLSDFSLEEEEFRLPELD", "soluble on expression in E. coli": "soluble"},
      {"sequence": "MNVLSPHIALYRLFDVADEIDLGRLSTPRLRLSRARLGAVRFENPPGEMELGVRNVEGLSGLLTARLYEFGVVSLSFRIHLGERVPWEAFLEKGLRIPELPFWEGFFLAELAALEPHLRGALLRPEEKRLSEEFVVYHALGLEGEKAFRPSVDLTPLWMGAEEEFAPEVRREVERYRYSYSTEDLALLGFDRVLILDSEGIWDVADLVEFVHAQLLELSYYDRVLTEELELVPQVLRHRGLWGYGRLQRLRRRLMARHAEIADVKARMEGALRITEDLFYAKIYRAALELYGAYELEKSVEEKLRVLEATYEMVTEEVAHLRTQAVEVAILALIAFEVVRALH", "soluble on expression in E. coli": "soluble"},
      {"sequence": "MRILGLDLGTKTLGVALSDEMGWTAQGIETIKINEAEGDYGLSRLSELIKDYTIDKIVLGFPKNMNGTVGPRGEASQTFAKVLETTYNVPVVLWDERLTTMAAEKMLIAADVSRQKRKKVIDKMAAVMILQGYLDSLNLEHHHHHH", "soluble on expression in E. coli": "not soluble"},
      {"sequence": "MGSDKIHHHHHHMTTSATKEALFSPDCLEFLAKLASNNERDWFKAHQAEYEAKVRTPALNFIGAMAPHIQQLSPRLTAVPKKVGGSLMRPQRDARFSSDKTPYKVNVGIQFRHFQGKDVHAPGLYLHIANDGCFLGAGIWHPDSKALSQIRSCIDDNPNAYKQALKQLSAAGFAMEGDSLQRPPKGYDKHHPMLDELKRKDFIAIKPLDTQQLFTKDFDTWCAEQFNQVNKLMGYLCFALDLDY", "soluble on expression in E. coli": "not soluble"},
      {"sequence": "MANLCKRVVDLEKYIVKEAPPTVYYIPDFISEAEEEFLLQQVYRAPKPKWTQLSGRRLQNWGGLPNPKGMLAEKLPDWLLEYTEKISALGAFAGKTANHVLVNEYKPGEGIMPHEDGPLYHPTVTTITVGSHTLLDFYRPVCQAEPDAPQTEESRYMLSLLVQRKSLLILQDDMYKCYLHGIRGVCEDVLSEHVVNISSTGAQVGDTLPRSTRVSLTIRHVPKIIRANLFLGKK", "soluble on expression in E. coli": "not soluble"},
      {"sequence": "GSVLEPLKVVWAKCSGYPSYPALIIDPKMPRVPGHHNGVTIPAPPLDVLKIGEHMQTKSDEKLFLVLFFDNKRSWQWLPKSKMVPLGIDETIDKLKMMEGRNSSIRKAVRIAFDRAMNHLSRVHGE", "soluble on expression in E. coli": "soluble"}
    ]}
  ]
}
